Data: patent US20240382677A1
Positions count from the first letter of the chain named.

B1: H2aM7780N (antibody, mouse IgG2a, V domains shown)
VH: QVQLVESGGGVVQSGRSLRLSCAASGFTFSSYGMHWVRQAPGKGLEWVAVIWYDGSNIYYSDSVKGRFTISRANSKNTLYLQMNSLRAEDTAVYYCARPGHWNYFFEYWGQGTLVTVSS
VL: DIQMTQSPSSLSASVGDRVTITCRASQSINNYLNWYQQKPGKAPKLLIYTASSLQSGVPSRFSGSGSGTDFTLTISSLQPEDFATYYCQQSYSTPPLTFGQGTQLEIK
B2: H2aM7796N (antibody, mouse IgG2a, V domains shown)
VH: QVQLVESGGGVVQPGRSLRLSCAASGFTFSSYGMHWVRQAPGKGLEWVAIIWSDGDSEYNLDSVKGRFTISRDNSKNTLYLQMNSLRVEDSAVYYCARDRDLEDIWGQGTMVTVSS
VL: DIQMTQSPSSLSASVGDRVTITCRASQGIRNDLGWYQQKPGKAPKRLIYAASNLQSGVPSRFSGSGSGTEFTLTISSLQPEDFATYYCLQHNSYPLTFGGGTKVEIK
B3: H2aM7798N (antibody, mouse IgG2a, V domains shown)
VH: EVQLLESGGVLVQPGGSLRLSCAASGFTFSNFGMTWVRQAPGKGLEWVSGISGGGRDTYFADSVKGRFTISRDNSKNTLYLQMNSLKGEDTAVYYCVKWGNIYFDYWGQGTLVTVSS
VL: DIQMTQSPSSLSASVGDSITITCRASLSINTFLNWYQQKPGKAPNLLIYAASSLHGGVPSRFSGSGSGTDFTLTIRTLQPEDFATYYCQQSSNTPFTFGPGTVVDFR
B4: H4H7798N (antibody, human IgG4 S228P, kappa, V domains shown)
VH: B3 VH
VL: DIQMTQSPSSLSASVGDSITITCRASLSINTFLNWYQQKPGKAPNLLIYAASSLHGGVPSRFSGSGSGTDFTLTIRTLQPEDFATYYCQQSSNTPFTFGPGTVVDFRR
B5: H2aM7795N (antibody, mouse IgG2a, V domains shown)
VH: EVQVVESGGGLVEPGRSLRLSCKASGFTFDDYAMHWVRQTPGKALEWVSGINWSGNNIGYADSVKGRFTISKDDAKNSLYLQMNSLRPEDTALYYCTKDISITGTLDAFDVWGQGTMVTVSS
VL: DIQMTQSPISVSASVGDRVTITCRASQGISNWLAWYQQKPGIAPKLLIYSASSLQSGVPSRFRGSGSGTDFTLTIGSLQPEDFATYYCQQAHSFPLTFGGGTKVEIK
B6: H1M7789N (antibody, mouse IgG1, V domains shown)
VH: EVQLLESGGGLVQPGGSLRLSCSASGFTFSSYTMNWVRQAPGKGLEWVSGISDTGGNTYYTDSVKGRFTVSRDNSKNTLSLQMNSLRAEDTAVYYCAKDQGGSYPYYFHYWGQGSLVTVSS
VL: B1 VL with N30S, N31S, N34I, K42T, L46F, T50A, S65C, L97I, Q104R
B7: H2aM7791N (antibody, mouse IgG2a, V domains shown)
VH: QMQLQQWGAGLLKPSETLSLTCVVYGGSLNGYYWSWIRQSPGKGLEWIGEIDHSGSTNYNPSLKNRVTMSVDTSKIQFSLKLTSVTVADTAVYYCAREGLLPFDYWGQGTLVTVSS
VL: EIVLTQSPGTLSLSPGERVTLSCRASQSVYSNYLAWYQQNPGQAPRLLIYAASNRATGIPDRFSGSGSGTDFTLTISRLEPEDFAVYYCHQYATSPWTFGQGTKVEIK
B8: H4H7795N2 (antibody, human IgG4 S228P, kappa, V domains shown)
VH: B5 VH with N52S
VL: DIQMTQSPISVSASVGDRVTITCRASQGISNWLAWYQQKPGIAPKLLIYSASSLQSGVPSRFRGSGSGTDFTLTIGSLQPEDFATYYCQQAHSFPLTFGGGTKVEIKR

molecular target: full length human PD-1 on HEK293/hPD-1 cells (human); test: FACS dose response, HEK293/hPD-1 cells

EC50 [nM] | Max Geom. Mean MFI @ 100 nM [MFI] | Binder
1.69 | 18400 | B1
4.81 | 14100 | B2
0.0698 | 20900 | B3
0.509 | 20300 | B4

molecular target: full length human PD-1 on HEK293/hPD-1 cells (human); test: FACS, 100 nM antibody

ratio of HEK293/hPD-1 to HEK293 parental cells [fold] | Binder
2.8 | B5
92.3 | B6
73.8 | B1
168 | B2
18 | B7
78.1 | B3

molecular target: full length human PD-1 on HEK293/hPD-1 cells (human); test: FACS, 100 nM antibody, HEK293/hPD-1 cells

MFI [MFI] | Binder
817 | B5
24200 | B6
23700 | B1
49800 | B2
4950 | B7
23400 | B3

molecular target: full length human PD-1 on HEK293/hPD-1 cells (human); test: FACS dose response, HEK293/hPD-1 cells; No EC50 determined

Max Geom. Mean MFI @ 100 nM [MFI] | Binder
624 | B2
1400 | B7

molecular target: full length human PD-1 on HEK293/hPD-1 cells (human); test: FACS dose response, HEK293/hPD-1 cells; EC50 Inconclusive

Max Geom. Mean MFI @ 100 nM [MFI] | Binder
15200 | B8
35600 | B6
